Target: T1, CBP-PHYA (recombinant full-length PHYA) (Arabidopsis, UniProt P14712 1-1122)
T1 construct: phytochrome A (PHYA), Arabidopsis, At1g09570, full length; coding region cloned into pCAL-n in frame with an upstream CBP tag; Made in E. coli; no chromophore is mentioned; also called CBP-PHYA-F; source: E. coli (BL21), purified (Calmodulin Resin)
T1 sequence (looked up): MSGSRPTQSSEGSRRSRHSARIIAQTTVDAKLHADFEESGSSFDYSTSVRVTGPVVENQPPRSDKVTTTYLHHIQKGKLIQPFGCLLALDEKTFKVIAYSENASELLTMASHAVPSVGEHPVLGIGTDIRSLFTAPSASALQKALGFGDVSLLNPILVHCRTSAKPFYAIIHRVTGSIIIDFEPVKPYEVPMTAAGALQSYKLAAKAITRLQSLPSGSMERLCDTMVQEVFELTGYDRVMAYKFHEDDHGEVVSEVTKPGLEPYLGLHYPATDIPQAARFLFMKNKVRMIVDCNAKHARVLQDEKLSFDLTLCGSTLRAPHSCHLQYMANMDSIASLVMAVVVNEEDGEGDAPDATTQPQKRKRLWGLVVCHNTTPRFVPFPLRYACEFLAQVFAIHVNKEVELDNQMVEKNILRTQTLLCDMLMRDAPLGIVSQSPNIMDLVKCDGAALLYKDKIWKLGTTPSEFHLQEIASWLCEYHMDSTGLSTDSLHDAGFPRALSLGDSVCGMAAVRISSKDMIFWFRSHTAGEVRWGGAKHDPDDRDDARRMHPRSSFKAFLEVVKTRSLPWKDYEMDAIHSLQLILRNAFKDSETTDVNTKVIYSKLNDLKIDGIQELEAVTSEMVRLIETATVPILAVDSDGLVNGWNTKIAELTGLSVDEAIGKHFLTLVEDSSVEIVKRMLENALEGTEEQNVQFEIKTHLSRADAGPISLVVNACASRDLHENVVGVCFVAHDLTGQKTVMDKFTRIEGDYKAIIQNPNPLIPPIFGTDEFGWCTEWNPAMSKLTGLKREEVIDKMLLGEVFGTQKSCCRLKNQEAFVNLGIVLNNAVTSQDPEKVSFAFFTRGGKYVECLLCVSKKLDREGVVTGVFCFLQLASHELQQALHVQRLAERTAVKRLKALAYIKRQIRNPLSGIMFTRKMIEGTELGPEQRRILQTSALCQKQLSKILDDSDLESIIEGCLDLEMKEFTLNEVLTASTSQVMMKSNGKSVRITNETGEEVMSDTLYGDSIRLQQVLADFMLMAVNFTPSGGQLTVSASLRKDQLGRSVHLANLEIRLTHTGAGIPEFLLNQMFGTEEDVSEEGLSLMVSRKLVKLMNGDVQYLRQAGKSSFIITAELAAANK
Test: pull-down; 1 μg GST-tagged FIN219 protein on 10 μl GST beads overnight at 4°C in 1 ml 1X PBS, then 1 μg CBP-PHYA for 2 h at 4°C; eight washes with 1X PBS; blots with anti-GST and anti-phyA
Settings: both partners purified

B1: GST-FIN219-FL (enzyme, Arabidopsis, UniProt Q9SKE2 1-575, looked up)
chain: MLEKVETFDMNRVIDEFDEMTRNAHQVQKQTLKEILLKNQSAIYLQNCGLNGNATDPEEAFKSMVPLVTDVELEPYIKRMVDGDTSPILTGHPVPAISLSSGTSQGRPKFIPFTDELMENTLQLFRTAFAFRNRDFPIDDNGKALQFIFSSKQYISTGGVPVGTATTNVYRNPNFKAGMKSITSPSCSPDEVIFSPDVHQALYCHLLSGILFRDQVQYVFAVFAHGLVHAFRTFEQVWEEIVTDIKDGVLSNRITVPSVRTAMSKLLTPNPELAETIRTKCMSLSNWYGLIPALFPNAKYVYGIMTGSMEPYVPKLRHYAGDLPLVSHDYGSSEGWIAANVTPRLSPEEATFAVIPNLGYFEFLPVSETGEGEEKPVGLTQVKIGEEYEVVITNYAGLYRYRLGDVVKVIGFYNNTPQLKFICRRNLILSINIDKNTERDLQLSVESAAKRLSEEKIEVIDFSSYIDVSTDPGHYAIFWEISGETNEDVLQDCCNCLDRAFIDAGYVSSRKCKTIGALELRVVAKGTFRKIQEHFLGLGSSAGQFKMPRCVKPSNAKVLQILCENVVSSYFSTAF
notes: FIN219/JAR1, Arabidopsis, At2g46370, full length; also called full-length FIN219; source: E. coli, purified (Glutathione Sepharose 4B)
binding result: binds

From paper PMC10237651, “Arabidopsis FIN219/JAR1 interacts with phytochrome A under far-red light and jasmonates in regulating hypocotyl elongation via a functional demand manner” (PLOS Genetics, 2023)
